Tested on: MS2 coat protein
Assay: apparent KD of MS2 coat protein; designed switch direction (-1 OFF switch, 1 ON switch): -1; higher = weaker reporter binding
Outline: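 RNA switches sharing common flanks were transcribed by stalled E. coli RNA polymerase on Illumina chips. A doubling series of SNAP-549-labelled MS2 coat protein, from 0.7 or 1.5 nM to 3 µM, was applied in Tris-HCl pH 7.5 buffer with KCl, MgCl2, BSA, DTT, tRNA and Tween-20. Each step lasted 0.8–1.5 h at the bottom of the series and 10–20 min at the top. Normalised cluster fluorescence was curve-fitted, giving apparent KD as the per-design median over clusters.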

[1] = input ligand: microRNA oligo, concentration not stated
[2] = Eterna round: R95, input ligand: microRNA oligo, concentration not stated
[3] = Eterna round: R95, input ligand: FMN 200 uM
[4] = Eterna round: R95, input ligand: none

Row | Sequence | apparent KD of MS2 coat protein (input ligand: FMN 200 uM) [µM] | apparent KD of MS2 coat protein [1] [µM] | apparent KD of MS2 coat protein (input ligand: none) [µM] | apparent KD of MS2 coat protein [2] [µM] | apparent KD of MS2 coat protein [3] [µM] | apparent KD of MS2 coat protein [4] [µM]
1 | GGUGGCUGCGUGAGACAUGAGGAUCACCCAUGUUACCGAACAAAGGAUAUAGAAGCACACAGCUACUAGAAGGUUGAAAAGAAA [Requen] (Eterna round: R96, puzzle: Exclusion NG 3) | 0.0122 | 0.0162 | 0.0196 | – | – | –
2 | GGUGGGCUAGGAUAUGCUUUGGGAAGGCAUUCCUUCGAUAAACUUGAGGAUCACCCAAGUAGAAGGAGCUUGCC [salish99_ex2_r4_021] (Eterna round: R97, puzzle: Exclusion 2) | 0.0213 | – | 0.0136 | – | – | –
3 | GGUGUACAUGAGGAUCACCCAUGUUAGGAUAUAUCCAAACGCCUAGAGGAGAGGCACGAUAGAAGGAACGUGUA [Eternabot (Original) Solution 33] (Eterna round: R97, puzzle: Exclusion 1) | 0.0372 | – | 0.041 | – | – | –
4 | GGUGUGAGGCAGGAUAUGCAAUAAGUAAGUAAUGCAGAAGGGUCUACAUGAGGAUCACCCAUGUGUGCGGUAGA [Ex6 #2] (Eterna round: R97, puzzle: Exclusion 6) | 0.202 | – | 0.109 | – | – | –
5 | GGUGUGCCAGUCAGGAUAUGAUCCACGCCCGUAGGUCAGAAGGGACUUGAGGAUCACCCAAGUUGCAAGAAAGA [Gesoxedi] (Eterna round: R97, puzzle: Brourd's mod of Exclusion 4) | 0.1 | – | 0.0973 | – | – | –
6 | GGUUAGACGGUAGGAUAUCCAUAUCGAGUGACCCUUUCAUAACAUGAGGAUCACCCAUGUCGGUGGGAGAAGGGCCGUACGGCG [salish99_ExNG02_R04_009] (Eterna round: R96, puzzle: Exclusion NG 2) | 0.0509 | 0.0335 | 0.0422 | – | – | –
7 | GGUUAUUGCAAGGAUAUGCUUUUUUUUGAUAUUGCAGAAGGUGCAACAUGAGGAUCACCCAUGUUGGAUGGGUU [JR_E6_Sub019] (puzzle: Exclusion 6) | – | – | – | 0.0941 | – | –
8 | GGUUCCUGAGGAUAUACAUGAGGAUCACCCAUGUCUAUAUCAGCAGACGAUGACACAAGUAGAAGGUAGAGGGC [Eternabot (L2) Solution 48] (Eterna round: R97, puzzle: Exclusion 3) | 0.015 | – | 0.0104 | – | – | –
9 | GGUUGACAUGAGGAUCACCCAUGUGAGGAUAUGCGAGAGAAAAAAGUGAGGAAGAAUUGCAGAAGGCGCUGUCG [salish99-ex1_r3_015] (puzzle: Exclusion 1) | – | – | – | 0.0371 | 0.0693 | 0.0769
10 | GGUUGACAUGAGGAUCACCCAUGUGAGGAUAUGCGAGAGAAAAAAGUGAGGAAGUUUUGCAGAAGGCGCUGUCG [salish99-ex1_r3_007] (puzzle: Exclusion 1) | – | – | – | 0.0875 | 0.0435 | 0.056
11 | GGUUGGCGAGGAUAUACAUGAGGAUCACCCAUGUGACAGAAAAAAGUGAGGAAGAAAAGUAGAAGGCGCUGACG [salish99_ex3_r3_019] (puzzle: Exclusion 3) | – | – | – | 0.0449 | 0.587 | 0.0371
12 | GGUUGGCGAGGAUAUACAUGAGGAUCACCCAUGUGAGACAAAAAAGUGAGGAAGAAAAGUAGAAGGCGCUGACG [salish99_ex3_r3_021] (puzzle: Exclusion 3) | – | – | – | 0.0541 | 0.362 | 0.0641
13 | GGUUGGCGAGGAUAUACAUGAGGAUCACCCAUGUGAGAGAAAAAAGCGAGGAAGAAAAGUAGAAGGCGCUGACG [salish99_ex3_r3_027] (puzzle: Exclusion 3) | – | – | – | 0.043 | 0.137 | 0.056
14 | GGUUGGCGAGGAUAUACAUGAGGAUCACCCAUGUGAGAGAAAAAAGUGAGGAACAAAAGUAGAAGGCGCUGACG [salish99_ex3_r3_033] (puzzle: Exclusion 3) | – | – | – | 0.0485 | 0.183 | 0.0583
15 | GGUUGGCGAGGAUAUACAUGAGGAUCACCCAUGUGAGAGAAAAAAGUGAGGAAGAAAAGUAGAAGGCGCUGACG [salish99-ex3-14] (Eterna round: R96, puzzle: Exclusion 3) | 0.354 | 0.105 | 0.084 | – | – | –
16 | GGUUGGCGAGGAUAUACAUGAGGAUCACCCAUGUGAGAGAAAAAAGUGAGGAAGAAAAGUAGAAGGCGCUGACG [salish99-ex3-champ] (puzzle: Exclusion 3) | – | – | – | 0.0493 | 0.412 | 0.0445

Row | Sequence | apparent KD of MS2 coat protein (input ligand: FMN 200 uM) [µM] | apparent KD of MS2 coat protein [1] [µM] | apparent KD of MS2 coat protein (input ligand: none) [µM] | apparent KD of MS2 coat protein [2] [µM] | apparent KD of MS2 coat protein [3] [µM] | apparent KD of MS2 coat protein [4] [µM]
17 | GGUUGGCGAGGAUAUACAUGAGGAUCACCCAUGUGAGAGAAAAAAGUGAGGAAGAAAAGUAGAAGGCGCUGACU [salish99_ex3_r3_047] (puzzle: Exclusion 3) | – | – | – | 0.0532 | 0.221 | 0.0501
18 | GGUUGGCGAGGAUAUACAUGAGGAUCACCCAUGUGAGAGAAAAGAGUGAGAACGAAAAGUAGAAGGCGCUGACG [salish99_ex3_r3_059] (puzzle: Exclusion 3) | – | – | – | 0.112 | 0.06 | 0.207
19 | GGUUGGCGAGGAUAUACAUGAGGAUCACCCAUGUGAGAGAAAAGAGUGAGGAAGAAAAGUAGAAGGCGCUGACG [salish99_ex3_r3_006] (puzzle: Exclusion 3) | – | – | – | 0.0698 | 0.0559 | 0.0761
20 | GGUUGGCGAGGAUAUACAUGAGGAUCACCCAUGUGAGAGAUACUAGUGAGGUCGAUUGGUAGAAGGCGCUGACA [Mat - Exclusion 3 - Mod of JL D78] (puzzle: Exclusion 3) | – | – | – | 0.114 | – | –
21 | GGUUGGCGAGGAUAUACAUGAGGAUCACCCAUGUGAGAGGAAAAAGUGAGAACGAAAAGUAGAAGGCGCUGACG [salish99_ex3_r3_062] (puzzle: Exclusion 3) | – | – | – | 0.0789 | 0.119 | 0.225
22 | GGUUGGCGAGGAUAUACAUGAGGAUCACCCAUGUGAGUGAAAAAAGUGAGGAAGAAAAGUAGAAGGCGCUGACG [salish99_ex3_r3_008] (puzzle: Exclusion 3) | – | – | – | 0.254 | 0.288 | 0.196
23 | GGUUUGUAAGGAUAUCCGAGAGGUAGGUGAGGGUUAGGGAAGGAGAAGGUACAUGAGGAUCACCCAUGUAAGGG [AK-MS2ROC-r4-exclusion4-10] (Eterna round: R97, puzzle: Exclusion 4) | 0.127 | – | 0.102 | – | – | –
24 | GUAAAACAUGAGGAUCACCCAUGUCAGGAUAUACGAAUCCACCCUAACUGCGUGGAUCGUAGAAGGGACAUAGG [Exclusion 1 (MOD5.1 Esqu)] (Eterna round: R97, puzzle: Exclusion 1) | 0.0179 | – | 0.0447 | – | – | –
25 | GUAAAACAUGUAGGAUAUGCGUGGCAAAGCUAUGCAGAAGGACAUGAGGAUCACCCAUGUUAAAGCGUCUGAGUACAGAUGCAA [Mat - Exclusion NG 1 - Mod of JL - D96] (Eterna round: R96, puzzle: Exclusion NG 1) | 0.445 | 0.0274 | 0.036 | – | – | –
26 | GUAAACGAAGAGGAUAUAUGAUAUCAAAGCUUCAUAGAAGGCUUCACAUGAGGAUCACCCAUGUGAUCUUCAAA [Mat - Exclusion 6 - JL Mod - D26] (Eterna round: R97, puzzle: Exclusion 6) | 0.203 | – | 0.0381 | – | – | –
27 | GUAAACGCAGAGGAUAUAUCAGAUCAAAGCUGCAUAGAAGGCUGCACAUGAGGAUCACCCAUGUGGUCUUUAAU [Mat - Exclusion 6 - JL Mod - D3] (Eterna round: R97, puzzle: Exclusion 6) | 0.203 | – | 0.021 | – | – | –
28 | GUAAAGAGAGGAUAUACAUGAGGAUCACCCAUGUACGACCAGCAGAAAUGGUCCUCGAGUAGAAGGCUCGGGUA [Araris] (Eterna round: R97, puzzle: Exclusion 3) | 0.239 | – | 0.0517 | – | – | –
29 | GUAAAGGUAGGAUAUACGAAGAAAAAGGGUAGAAUAAUAACACAUGAGGAUCACCCAUGUAGAAGGACCAAAUG [Mat - Exclusion 2 - Mod of my Tesla design - D5] (puzzle: Exclusion 2) | – | – | – | 0.0265 | 0.0657 | 0.0324
30 | GUAAAGUGAGGAUAUGGUAAAGUAAGUAUGUAGUAAGUAAUCCAGAAGGCACAUGAGGAUCACCCAUGUAAAUG [Mat - Exclusion 4 - D99] (puzzle: Exclusion 4) | – | – | – | 0.0288 | – | –
31 | GUAAAGUGAGGAUAUGGUAAAUUAAUUAUUUAGUAAUUAAUCCAGAAGGCACAUGAGGAUCACCCAUGUAAAUG [Mat - Exclusion 4 - D95] (puzzle: Exclusion 4) | – | – | – | 0.0321 | – | –

From the supplement of paper PMC9170038
